According to publication PMC11822739:
“And” between values parts separate entries of the source, which are not always exact repeats. Equal values may be shown once. Read-outs that look alike come from different tables or passages of the source.

Legend:
[1] = target: HBV truncated core protein CP149 dimer (hepatitis B virus); experiment: SEC + native MS
[2] = target: HBV truncated core protein CP149 dimer (hepatitis B virus); experiment: SEC-MALS; SEC-UV-MALS-RI; 7.8 x 300 mm 1000 Å 3 μm column; 20 mM phosphate, 276 mM NaCl, 5.4 mM KCl, pH 7.4 (2x dPBS); flow rates 0.29 and 1.15 mL/min; 20 μL of 2 mg/mL Qβ, 14.4 μL of 0.67 mg/mL HBV VLPs with residual CP149 dimer; dn/dc 0.185 mL/mg
[3] = target: bacteriophage Qβ virus-like particles (bacteriophage Qβ); experiment: as above
[4] = target: bovine thyroglobulin (bovine) (UniProt P01267); experiment: SEC + native MS
[5] = target: bovine thyroglobulin (bovine) (UniProt P01267); experiment: SEC + native MS; remark: listed apart in the source

## HBV truncated core protein CP149 dimer (domain or fragment)
[1]
  stoichiometry N: 120 CP dimers and 90 CP dimers
[2]
  stoichiometry N: 120 CP dimers and 90 CP dimers

## bacteriophage Qβ virus-like particles (complex)
[3]
  stoichiometry N (x the molar mass of peak 3): 4 and 2

## bovine thyroglobulin, P01267 20-2769
[4]
  stoichiometry N: 2
[5]
  stoichiometry N: 4 and 3
